Results reported in patent publication US20210340531A1 (YALE UNIVERSITY, published 2021).
Where a chain is given by its changes, count along the chain named. Names and notes keep the numbering of the source.

How the values were obtained:
[1] = target: the molecule itself; assay: in vitro filament assembly, negative-stain electron microscopy
Description: Filament assembly was terminated after 10 min by adding stop buffer (0.2% glutaraldehyde, 20 mM KCl, 0.7 mM NaHPO). Filament samples were immediately applied to a Carbon type B-400 mesh-Copper grid charged with Pelco easiGlow (Ted Pella, Redding, Calif.) at 25 mA for 30s, and negatively stained using 2% aqueous uranyl acetate. Images were captured with a Talos L120C Electron Microscope from FEI (Hillsboro, Oreg.).
Protein production and purification: Full-length wild-type K1, K10, K8, K18, and vimentin constructs in pET-21a(+) or pET-24a(+) based plasmids are used. K1, K8, and vimentin knob mutants (both individual [FA, LA] and double [FLAA] residue mutants) are also used. K10 is expressed in E. coli BL21(DE3)pLysS cells at 20° C. for 72 hours using an autoinduction method. Expression of all other keratins and vimentins occur in E. coli BL21(DE3) cells using LB at 37° C. for 3 hours with 1 mM IPTG for induction. […]
Electron microscopy: Filament samples are immediately applied to a Carbon type B-400 mesh-Copper grid charged with Pelco easiGlow (Ted Pella, Redding, Calif.) at 25 mA for 30s, and negatively stained using 2% aqueous uranyl acetate. […] Images are analyzed for the number, length, width, and shape of filamentous structures formed at each timepoint to evaluate the dynamics of IF assembly in vitro for both wild-type and knob mutant proteins.

gel filtration = target: the molecule itself; assay: gel filtration
keratin 10 helix 1B [2] = target: T1, keratin 10 helix 1B (human, UniProt P13645 195-296); assay: K1 knob mutants with K10-1B
T1 construct: Single chain of the K1/K10-1B complex; His6 tag removed with thrombin before gel filtration, light scattering and crystallization; also called K10-1B; K10

keratin 10 helix 1B [3] = target: T1, keratin 10 helix 1B; assay: X-ray crystal structure, asymmetric unit
Description: The final model of the K1^S233L/K10-1B mutant crystal asymmetric unit contained one K1-1B S233L and one K10-1B molecules. The final Ramachandran statistics were: residues in favorable regions, 99%; in allowed regions, 1%; in outlier regions, 0%. Electrostatics were calculated using PDB2PQR and Adaptive Poisson-Boltzmann Software (APBS). Structural analyses were performed using Coot, UCSF Chimera (Resource for Biocomputing, Visualization, and Informatics, University of California, San Francisco), WHAT IF, ESBRI, and PDBePISA (The European Bioinformatics Institute, European Molecular Biology Laboratory, UK). Figures were prepared using UCSF Chimera and Adobe Illustrator. Atomic coordinates and structure factors have been deposited in the Protein Data Bank under the accession code TBD.
Mutant K1/K10-1B (22.8 mg/ml) in 100 mM Tris-HCl buffer (pH 7.4) containing 200 mM NaCl was crystallized using 100 mM Tris buffer (pH 8.5) containing 1.5M ammonium sulfate and 12% glycerol. Crystals were soaked 1-3 min in a cryoprotectant solution containing 27% glycerol in mother liquor prior to flash-freezing in liquid nitrogen. One native data set on a single crystal was collected (λ=0.9795 Å). The native crystal belonged to the hexagonal space group P6 22 (cell dimensions: a=93.29 Å, b=93.29 Å, c=124.74 Å, α=β=90, γ=120). […]

B1: full-length wild-type K1/K10 heterodimeric complex (other)
chain 1: MSRQFSSRSGYRSGGGFSSGSAGIINYQRRTTSSSTRRSGGGGGRFSSCGGGGGSFGAGGGFGSRSLVNLGGSKSISISVARGGGRGSGFGGGYGGGGFGGGGFGGGGFGGGGIGGGGFGGFGSGGGGFGGGGFGGGGYGGGYGPVCPPGGIQEVTINQSLLQPLNVEIDPEIQKVKSREREQIKSLNNQFASFIDKVRFLEQQNQVLQTKWELLQQVDTSTRTHNLEPYFESFINNLRRRVDQLKSDQSRLDSELKNMQDMVEDYRNKYEDEINKRTNAENEFVTIKKDVDGAYMTKVDLQAKLDNLQQEIDFLTALYQAELSQMQTQISETNVILSMDNNRSLDLDSIIAEVKAQNEDIAQKSKAEAESLYQSKYEELQITAGRHGDSVRNSKIEISELNRVIQRLRSEIDNVKKQISNLQQSISDAEQRGENALKDAKNKLNDLEDALQQAKEDLARLLRDYQELMNTKLALDLEIATYRTLLEGEESRMSGECAPNVSVSVSTSHTTISGGGSRGGGGGGYGSGGSSYGSGGGSYGSGGGGGGGRGSYGSGGSSYGSGGGSYGSGGGGGGHGSYGSGSSSGGYRGGSGGGGGGSSGGRGSGGGSSGGSIGGRGSSSGGVKSSGGSSSVRFVSTTYSGVTR
chain 2: MSVRYSSSKHYSSSRSGGGGGGGGCGGGGGVSSLRISSSKGSLGGGFSSGGFSGGSFSRGSSGGGCFGGSSGGYGGLGGFGGGSFRGSYGSSSFGGSYGGIFGGGSFGGGSFGGGSFGGGGFGGGGFGGGFGGGFGGDGGLLSGNEKVTMQNLNDRLASYLDKVRALEESNYELEGKIKEWYEKHGNSHQGEPRDYSKYYKTIDDLKNQILNLTTDNANILLQIDNARLAADDFRLKYENEVALRQSVEADINGLRRVLDELTLTKADLEMQIESLTEELAYLKKNHEEEMKDLRNVSTGDVNVEMNAAPGVDLTQLLNNMRSQYEQLAEQNRKDAEAWFNEKSKELTTEIDNNIEQISSYKSEITELRRNVQALEIELQSQLALKQSLEASLAETEGRYCVQLSQIQAQISALEEQLQQIRAETECQNTEYQQLLDIKIRLENEIQTYRSLLEGEGSSGGGGRGGGSFGGGYGGGSSGGGSSGGGHGGGHGGSSGGGYGGGSSGGGSSGGGYGGGSSSGGHGGSSSGGYGGGSSGGGGGGYGGGSSGGGSSSGGGYGGGSSSGGHKSSSSGSVGESSSKGPRY
notes: also called WT K1/K10
Question: Does B1 bind [1]?
Answer: Result: binds

B2: K1-L318A/10-1B mutant heterodimer (other)
chain 1: NLEPYFESFINNLRRRVDQLKSDQSRLDSELKNMQDMVEDYRNKYEDEINKRTNAENEFVTIKKDVDGAYMTKVDLQAKLDNLQQEIDFLTAAYQAELSQMQTQIS
chain 2: not shown
notes: also called L318A^K1 (LA); K1-L318A/K10-1B
Question: Does B2 bind (gel filtration)?
Answer: Result: binds

B3: K1 F314A+L318A (FLAA)/K10-1B double mutant heterodimer (other)
chain 1: B2 chain 1 with F89A
chain 2: not shown
notes: also called F314A^K1+L318A^K1
Question: Does B3 bind (gel filtration)?
Answer: Result: no binding

B4: K1-F314A/10-1B mutant heterodimer (other)
chain 1: B2 chain 1 with F89A, A93L
chain 2: not shown
notes: also called F314A^K1 (FA); K1-F314A/K10-1B
Question: Does B4 bind (gel filtration)?
Answer: Result: no binding

B5: keratin 1 helix 1B F314A+L318A (other)
chain: B2 chain 1 with F89A
notes: Single chain; also called K1-1B mutant F314A+L318A; FLAA
Question: Does B5 bind (keratin 10 helix 1B [2])?
Answer: Result: binds

B6: keratin 1 helix 1B S233L (other)
chain: B2 chain 1 with S8L, A93L
notes: Single chain of the mutant complex; also called K1^S233L-1B; K1-1B S233L
Question: Does B6 bind (keratin 10 helix 1B [3])?
Answer: Result: binds

B7: keratin 1 helix 1B L318A (other)
chain: B2 chain 1
notes: Single chain; also called K1-1B mutant L318A; LA
Question: Does B7 bind (keratin 10 helix 1B [2])?
Answer: Result: binds

B8: full-length wild-type K8/K18 heterodimeric complex (other, human)
chain 1: MSIRVTQKSYKVSTSGPRAFSSRSYTSGPGSRISSSSFSRVGSSNFRGGLGGGYGGASGMGGITAVTVNQSLLSPLVLEVDPNIQAVRTQEKEQIKTLNNKFASFIDKVRFLEQQNKMLETKWSLLQQQKTARSNMDNMFESYINNLRRQLETLGQEKLKLEAELGNMQGLVEDFKNKYEDEINKRTEMENEFVLIKKDVDEAYMNKVELESRLEGLTDEINFLRQLYEEEIRELQSQISDTSVVLSMDNSRSLDMDSIIAEVKAQYEDIANRSRAEAESMYQIKYEELQSLAGKHGDDLRRTKTEISEMNRNISRLQAEIEGLKGQRASLEAAIADAEQRGELAIKDANAKLSELEAALQRAKQDMARQLREYQELMNVKLALDIEIATYRKLLEGEESRLESGMQNMSIHTKTTSGYAGGLSSAYGGLTSPGLSYSLGSSFGSGAGSSSFSRTSSSRAVVVKKIETRDGKLVSESSDVLPK
chain 2: MSFTTRSTFSTNYRSLGSVQAPSYGARPVSSAASVYAGAGGSGSRISVSRSTSFRGGMGSGGLATGIAGGLAGMGGIQNEKETMQSLNDRLASYLDRVRSLETENRRLESKIREHLEKKGPQVRDWSHYFKIIEDLRAQIFANTVDNARIVLQIDNARLAADDFRVKYETELAMRQSVENDIHGLRKVIDDTNITRLQLETEIEALKEELLFMKKNHEEEVKGLQAQIASSGLTVEVDAPKSQDLAKIMADIRAQYDELARKNREELDKYWSQQIEESTTVVTTQSAEVGAAETTLTELRRTVQSLEIDLDSMRNLKASLENSLREVEARYALQMEQLNGILLHLESELAQTRAEGQRQAQEYEALLNIKVKLEAEIATYRRLLEDGEDFNLGDALDSSNSMQTIQKTTTRRIVDGKVVSETNDTKVLRH
notes: also called K8/18
Question: Does B8 bind [1]?
Answer: Result: binds
